The target of this experiment is T1, human ISG15 (1-157)-SBP-His (human, UniProt P05161 1-157).
T1 construct: human ISG15, residues 1-157, cloned into pET30b; also called hISG15-SBP-His; human ISG15-SBP; source: E. coli BL21 (DE3), purified (Ni-NTA, SEC); not shown: His, C-terminal, kept
Put plainly: SEC; VHH and ISG15 mixed at the indicated molar ratios (1:2, 1:1 or 1:1:1) at 20 μM in 500 μl TBS, 20 min at room temperature; Superdex 75 10/300, fractions on SDS-PAGE. The note with it: both partners purified. (In general: In gel filtration, larger molecules generally elute earlier.)

T1 sequence (P05161 1-157): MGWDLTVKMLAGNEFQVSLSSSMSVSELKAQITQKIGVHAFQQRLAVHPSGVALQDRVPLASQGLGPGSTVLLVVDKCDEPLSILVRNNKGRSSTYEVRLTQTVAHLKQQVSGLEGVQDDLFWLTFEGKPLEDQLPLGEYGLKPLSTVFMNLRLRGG

B1: VHH_(ISG15-A)-HA-His (VHH)
VHH: QLQLVETGGGLVQAGGSLRLSCAASGRTFAGLSVKWFRQPPGAEREWVAHITSTGSSTHYADSVKGRFTISRDYDRNMVYLQMSSLKPEDTAVYYCHASTLWPEKHQDYWGQGIQVTVSS
notes: VHH domain; also called VHH-A; source: E. coli WK6, periplasm (osmotic shock), purified (Ni-NTA, SEC); not shown: LPETGG sortase motif, C-terminal, kept; HA, C-terminal, kept; His6, C-terminal, kept
As to B1, the binding result was “binds”.

These data come from publication PMC12406269, “Identification and characterization of nanobodies specific for the human ubiquitin–like ISG15 protein” (The Journal of Biological Chemistry, 2025).
